{
  "source": "paper PMC4866688",
  "about": "“Trypanosoma brucei DHFR-TS Revisited: Characterisation of a Bifunctional and Highly Unstable Recombinant Dihydrofolate Reductase-Thymidylate Synthase” (PLoS Neglected Tropical Diseases, 2016)",
  "proteins": {"B1": {"name": "Trypanosoma brucei dihydrofolate reductase-thymidylate synthase, Tsf tag removed with TEV protease (enzyme, UniProt Q27783 1-527, looked up)", "chain": "MLSLTRILRKKIPVHELAGKISRPPLRPFSVVVASDEKGGIGDGGTIPWEIPEDMQYFRRVTTNLRGKNVKPSPSKRNAVVMGRKTWDSLPPKFRPLSNRLNVVLSRSATKEQLLAGIPDPIKRAEAANDVVAVNGGLEDALRMLVSKEHTSSIETVFCIGGGTIYKQALCAPCVNVLQAIHRTVVRPASNSCSVFFDIPAAGTKTPEGLELVRESITDERVSTGAGGKKYQFEKLVPRNSEEEQYLNLVGRIIDEGCTKCDRTGVGTRSLFGAQMRFSLRNNRLPLLTTKRVFWRGVCEELLWFLRGETNAKLLSDKGIHIWDGNGSRAFLDSRGLTDYDEMDLGPVYGFQWRHFGADYISCKVDSEGKGVDQIANIVKSLIENPDDRRMICTAWNPAALPRMALPPCHMMAQFYVSNGELSCMLYQRSCDMGLGVPFNIASYALLTFLMAKASGLRPGELVHTLGDAHVYSNHVEPCRKQLKRVPRPFPFIVFKQDKEFLEDFQESDIEVIDYSPYPVISMEMAV", "notes": "bifunctional dihydrofolate reductase-thymidylate synthase of Trypanosoma brucei strain 427; N-terminal DHFR domain (ends at Arg 239), linker, C-terminal TS domain; also called TbDHFR-TS; cleaved TbDHFR-TS; not shown: Tsf (E. coli elongation factor Ts), N-terminal, cleaved; His6, internal (between Tsf and the TEV site), cleaved"}},
  "biological_target": "the molecule itself",
  "experiment": "SEC; Superdex 200 column, Bio-Rad gel filtration standards; purified cleaved enzyme, DHFR activity and absorbance at 280 nm followed",
  "data": [
    {"protein": "B1", "values": [
      {"measurement": "stoichiometry N", "value": 2}
    ]}
  ]
}
